Measured values published in article PMC6302314.

Assays:
[1] = molecular target: tau K18 ΔK280 (I260C/C291A/C322A), labelled with Alexa488 or Alexa647; test: FRET or BRET; single-molecule FRET between copies; 5 μM tau–Alexa488 + 5 μM tau–Alexa647, aggregation started with heparin (1:4 heparin/tau), 22-42 °C; aliquots diluted 12.500 times into low ionic strength buffer (no NaCl); confocal detection in a microfluidic channel, 6 min per time point
[2] = molecular target: tau K18 ΔK280 (I260C/C291A/C322A), labelled with Alexa488 or Alexa647; test: FRET or BRET; single-molecule FRET between copies; 5 μM tau–Alexa488 + 5 μM tau–Alexa647, aggregation started with heparin (1:4 heparin/tau), 22-42 °C; aliquots diluted 12.500 times into high ionic strength buffer (0.5 M NaCl); confocal detection in a microfluidic channel, 6 min per time point

## tau K18 ΔK280 (I260C/C291A/C322A), labelled with Alexa488 or Alexa647 (domain or fragment)
[1]
  maximum observed concentration of type A oligomers (37 °C): 104 nM
[2]
  maximum observed concentration of type B oligomers (37 °C): 37 nM
